Reference: patent US20250092135A1 (NANJING LEADS BIOLABS, published 2025)
Blank lines part the entries; values can stand above or below the binder they belong to.

Legend:
Human MUC16-His [1] = target: T1, Human MUC16-His (human); assay: BLI (ForteBio Octet RED96), antibody on AHC sensor, 1:1 model
T1 construct: The entry includes the C-terminal 6xHis tag; also called membrane-proximal end of the extracellular region of the human MUC16 protein; Human MUC16 protein
T1 chain: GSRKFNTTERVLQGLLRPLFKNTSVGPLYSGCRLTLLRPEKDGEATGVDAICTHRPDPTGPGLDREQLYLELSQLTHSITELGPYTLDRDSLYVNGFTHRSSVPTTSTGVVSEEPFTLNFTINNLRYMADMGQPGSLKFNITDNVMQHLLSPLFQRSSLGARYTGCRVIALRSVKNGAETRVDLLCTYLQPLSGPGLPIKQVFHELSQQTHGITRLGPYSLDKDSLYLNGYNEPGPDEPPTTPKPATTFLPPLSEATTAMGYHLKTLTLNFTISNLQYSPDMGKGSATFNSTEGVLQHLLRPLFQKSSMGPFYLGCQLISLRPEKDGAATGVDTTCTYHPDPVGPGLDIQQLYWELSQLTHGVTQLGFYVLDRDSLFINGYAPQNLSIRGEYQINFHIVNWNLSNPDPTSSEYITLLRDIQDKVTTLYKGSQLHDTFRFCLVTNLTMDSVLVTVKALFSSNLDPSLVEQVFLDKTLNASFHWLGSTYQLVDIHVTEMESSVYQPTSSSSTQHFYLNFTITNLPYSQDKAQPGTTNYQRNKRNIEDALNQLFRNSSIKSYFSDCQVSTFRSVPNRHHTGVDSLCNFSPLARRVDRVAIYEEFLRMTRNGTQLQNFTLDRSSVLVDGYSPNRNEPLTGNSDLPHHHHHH

Rhesus monkey MUC16-His [2] = target: T2, Rhesus monkey MUC16-His (rhesus monkey); assay: as above
T2 construct: The entry includes the C-terminal 6xHis tag; also called membrane-proximal end of the extracellular region of the rhesus monkey MUC16 protein
T2 chain: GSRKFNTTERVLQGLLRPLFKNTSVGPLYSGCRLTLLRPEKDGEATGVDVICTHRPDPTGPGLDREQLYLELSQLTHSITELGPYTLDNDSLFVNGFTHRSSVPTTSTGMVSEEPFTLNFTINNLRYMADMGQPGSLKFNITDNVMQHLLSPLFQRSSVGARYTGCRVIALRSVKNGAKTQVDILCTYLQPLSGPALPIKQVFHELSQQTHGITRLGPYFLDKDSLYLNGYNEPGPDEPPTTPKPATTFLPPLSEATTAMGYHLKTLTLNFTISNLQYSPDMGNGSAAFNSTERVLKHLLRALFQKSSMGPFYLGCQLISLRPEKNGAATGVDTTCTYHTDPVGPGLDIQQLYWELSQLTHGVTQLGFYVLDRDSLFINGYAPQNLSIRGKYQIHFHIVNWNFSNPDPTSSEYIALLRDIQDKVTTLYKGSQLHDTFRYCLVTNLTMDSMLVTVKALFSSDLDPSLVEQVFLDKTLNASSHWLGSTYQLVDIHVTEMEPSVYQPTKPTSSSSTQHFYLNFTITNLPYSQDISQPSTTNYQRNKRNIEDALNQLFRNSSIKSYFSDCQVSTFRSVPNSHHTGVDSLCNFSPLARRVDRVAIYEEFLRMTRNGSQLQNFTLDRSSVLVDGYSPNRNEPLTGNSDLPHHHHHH

Human MUC16-His [3] = target: T1, Human MUC16-His; assay: BLI (ForteBio Octet RED96), antibody on AHC sensor, 50 nM antigen, 1:1 model
Excerpt: (§1) The binding affinity of the anti-MUC-16 antibodies for the membrane-proximal end of the extracellular region of the human MUC16 protein (human MUC16-His, Table 26) and the membrane-proximal end of the extracellular region of the rhesus monkey MUC16 protein (rhesus monkey MUC16-His, Table 26) was detected by ForteBio Octet RED96, respectively. According to the manufacturer's instructions, an AHC sensor (ForteBio, Cat #18-5060) was placed in a running buffer (lx PBS, Hyclone, Cat #SH30256.01, containing 0.02% Tween 20, pH 7.0) and pre-equilibrated at room temperature for 10 min. In a 96-well plate, the kinetic assay was performed according to the following steps: a) equilibrating the baseline for 100 s with the running buffer; b) diluting the anti-MUC-16 antibodies with the running buffer to 5 μg/mL, immobilizing for 200 s, and stopping; c) equilibrating the baseline for 300 s with the running buffer; and d) diluting the human or rhesus monkey MUC16 protein with the running buffer to 50 nM, binding for 200 s, and dissociating for 600 s. The experimental data were fitted and calculated using a Fortebio Data Analysis software 1:1 binding model.

Rhesus monkey MUC16-His [4] = target: T2, Rhesus monkey MUC16-His; assay: as above
Excerpt: as §1

Kd (Human MUC16-His [1]): 2.9 nM
koff (Human MUC16-His [1]): 0.000911 s⁻¹
kon (Human MUC16-His [1]): 314000 M⁻¹ s⁻¹
Kd (Rhesus monkey MUC16-His [2]): 1.04 nM
koff (Rhesus monkey MUC16-His [2]): 0.000263 s⁻¹
kon (Rhesus monkey MUC16-His [2]): 254000 M⁻¹ s⁻¹
B1: humanized anti-MUC16 antibody Hu-L4H7 (antibody, human IgG1, kappa, L234A L235A, V domains shown)
VH: QVQLVQSGAEVKKPGASVKVSCKASGYTFTDYNIHWVRQAPGQGLEWMGYIYPYNGVSDYNQNFKSRVTMTTDTSTSTAYMELRSLRSDDTAVYYCARWDFGSGYYFDYWGQGTLVTVSS
VL: EIVLTQSPATLSLSPGERATLSCRASSSVIYMSWYQQKPGQAPRLLIYGTSTLASGIPARFSGSGSGTDFTLTISSLEPEDFAVYYCQQWSSNPFTFGQGTKLEIKR
notes: human IgG1 with L234A, L235A, D265A, P329A and kappa; Biotinylated in the CA125 ELISA; also called humanized MUC-16 antibody

Kd (Human MUC16-His [3]): 0.921 nM
koff (Human MUC16-His [3]): 0.000245 s⁻¹
kon (Human MUC16-His [3]): 266000 M⁻¹ s⁻¹
Kd (Rhesus monkey MUC16-His [4]): 1.03 nM
koff (Rhesus monkey MUC16-His [4]): 0.000826 s⁻¹
kon (Rhesus monkey MUC16-His [4]): 803000 M⁻¹ s⁻¹
B2: anti-MUC16 antibody 776.1(C33S) (antibody, human IgG1, kappa, L234A L235A, V domains shown)
VH: EVQLQQSGPELVKPGASVKISCKASGYTFTDYNIHWVKQSHGKILEWIGYIYPYNGVSDYNQNFKSKATLIVDNSSNTAYMELRSLTSEDSAVYYCARWDFGSGYYFDYWGQGTTLTVSS
VL: QIVLSQSPAILFASPGETVTMTCRASSSVIYMSWNQQKPGSSPKPWIYGTSTLASGVPTRFSGSGSGTSYSLTISRVEAEDAATYYCQQWSSNPFTFGSGTKLEIKR
